{"source": "patent EP2717940B1", "key": {"hCCR2b (human)": {"target": "hCCR2b (human) (UniProt P41597)", "sequence (P41597 other isoform, or with tags, fused parts or gaps)": "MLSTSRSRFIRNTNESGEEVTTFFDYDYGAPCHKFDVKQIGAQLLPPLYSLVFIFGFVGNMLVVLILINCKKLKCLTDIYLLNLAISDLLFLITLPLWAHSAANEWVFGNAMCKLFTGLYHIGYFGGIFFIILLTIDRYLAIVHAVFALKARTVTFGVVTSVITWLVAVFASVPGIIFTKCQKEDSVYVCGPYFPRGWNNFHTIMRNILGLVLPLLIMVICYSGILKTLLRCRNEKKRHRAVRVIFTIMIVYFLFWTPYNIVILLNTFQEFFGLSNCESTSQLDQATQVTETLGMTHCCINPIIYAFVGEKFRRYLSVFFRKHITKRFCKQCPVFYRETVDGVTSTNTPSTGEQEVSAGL", "assay": "cell-based or functional assay"}, "[1]": {"target": "chemokine (C-C motif) receptor 2 (CCR2) on peripheral blood cells (human) (UniProt P41597)", "sequence (P41597 whole entry)": "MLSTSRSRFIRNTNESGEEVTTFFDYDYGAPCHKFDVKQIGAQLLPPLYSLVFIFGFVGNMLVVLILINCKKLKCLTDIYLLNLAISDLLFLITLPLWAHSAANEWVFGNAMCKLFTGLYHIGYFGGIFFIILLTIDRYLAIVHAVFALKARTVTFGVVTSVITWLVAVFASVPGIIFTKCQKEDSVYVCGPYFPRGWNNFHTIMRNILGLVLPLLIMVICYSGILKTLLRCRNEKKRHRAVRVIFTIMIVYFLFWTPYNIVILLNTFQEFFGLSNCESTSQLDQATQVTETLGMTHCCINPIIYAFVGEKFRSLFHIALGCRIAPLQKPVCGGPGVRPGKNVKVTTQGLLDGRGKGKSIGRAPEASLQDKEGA", "assay": "in vitro depletion: blood of three healthy donors passed through a column with bMCP-1 coupled streptavidin Sepharose matrix, flow cytometry before and after"}, "[2]": {"target": "chemokine (C-C motif) receptor 2 (CCR2) on peripheral blood cells (human) (UniProt P41597)", "assay": "flow cytometry, biotinylated chemokine (1 µM) on blood cells of adiposis dolorosa patients, CD19 positive cells, detected with fluorophore conjugated streptavidin"}, "[3]": {"target": "chemokine (C-C motif) receptor 5 (CCR5) (human) (UniProt P51681)", "sequence (P51681 whole entry)": "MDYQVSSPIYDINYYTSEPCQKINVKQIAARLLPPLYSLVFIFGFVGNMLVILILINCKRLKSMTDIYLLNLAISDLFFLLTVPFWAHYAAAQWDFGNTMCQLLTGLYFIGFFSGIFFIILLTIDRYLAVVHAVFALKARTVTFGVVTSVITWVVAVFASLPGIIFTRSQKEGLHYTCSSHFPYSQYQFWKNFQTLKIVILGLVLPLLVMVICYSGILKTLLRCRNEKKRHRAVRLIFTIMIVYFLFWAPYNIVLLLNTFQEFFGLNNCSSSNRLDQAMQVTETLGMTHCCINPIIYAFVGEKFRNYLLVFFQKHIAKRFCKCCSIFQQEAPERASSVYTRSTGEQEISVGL", "assay": "cell-based or functional assay"}, "[4]": {"target": "T1, chemokine (C-C motif) receptor 1 (CCR1) (human) (UniProt P32246)", "T1 sequence (looked up)": "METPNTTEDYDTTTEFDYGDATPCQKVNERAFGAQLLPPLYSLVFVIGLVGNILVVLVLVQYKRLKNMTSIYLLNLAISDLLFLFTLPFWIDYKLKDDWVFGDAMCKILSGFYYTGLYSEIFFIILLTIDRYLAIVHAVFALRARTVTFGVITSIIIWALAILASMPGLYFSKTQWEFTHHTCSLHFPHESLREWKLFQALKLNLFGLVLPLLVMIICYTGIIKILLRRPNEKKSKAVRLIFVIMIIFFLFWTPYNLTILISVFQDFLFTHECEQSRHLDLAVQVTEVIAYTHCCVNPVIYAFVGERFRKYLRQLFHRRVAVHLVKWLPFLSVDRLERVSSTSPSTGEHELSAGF", "assay": "in vitro depletion: blood of a healthy donor passed through a column with biotinylated RANTES coupled matrix, flow cytometry for CCR1, 3 or 5-expressing cells"}, "[5]": {"target": "T2, chemokine (C-C motif) receptor 3 (CCR3) (human) (UniProt P51677)", "T2 sequence (looked up)": "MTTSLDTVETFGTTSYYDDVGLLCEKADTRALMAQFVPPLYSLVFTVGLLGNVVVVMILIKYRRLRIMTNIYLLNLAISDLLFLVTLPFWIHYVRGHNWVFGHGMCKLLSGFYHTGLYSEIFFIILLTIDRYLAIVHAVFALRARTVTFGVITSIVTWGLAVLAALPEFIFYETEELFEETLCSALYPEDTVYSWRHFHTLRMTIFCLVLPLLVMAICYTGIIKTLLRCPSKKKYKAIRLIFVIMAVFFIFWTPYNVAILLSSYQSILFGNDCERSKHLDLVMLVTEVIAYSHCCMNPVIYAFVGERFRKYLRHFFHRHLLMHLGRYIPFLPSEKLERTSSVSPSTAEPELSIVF", "assay": "in vitro depletion: blood of a healthy donor passed through a column with biotinylated RANTES coupled matrix, flow cytometry for CCR1, 3 or 5-expressing cells"}, "[6]": {"target": "chemokine (C-C motif) receptor 5 (CCR5) (human) (UniProt P51681)", "assay": "in vitro depletion: blood of a healthy donor passed through a column with biotinylated RANTES coupled matrix, flow cytometry for CCR1, 3 or 5-expressing cells"}}, "data": [{"substance": "recombinant native MCP-2 (from UniProt P80075 24-99) (ligand)", "values": [{"measurement": "EC50, activity (partial agonist) in an Aequorin assay", "setting": "hCCR2b (human)", "value": 23.5, "unit": "nM"}]}, {"substance": "recombinant native MCP-1 (from UniProt P13500 24-99) (ligand)", "values": [{"measurement": "EC50, agonist activity in an Aequorin assay", "setting": "hCCR2b (human)", "value": 3.1, "unit": "nM"}]}, {"substance": "biotinylated MCP1 (bMCP1) (from UniProt P13500 24-99) (ligand)", "values": [{"measurement": "remaining levels of monocytes after column passage", "setting": "[1]", "value": "20 to 30", "unit": "%"}, {"measurement": "percent of B cells that bind", "setting": "[2]", "value": 65, "unit": "%"}]}, {"substance": "biotinRANTES (CCL5): RANTES derivatised at the ε-amino side chain functionality of Lys(67) with Biotin (TFA salt) (from UniProt P13501 24-91) (ligand)", "values": [{"measurement": "EC50, agonist activity in an Aequorin assay", "setting": "[3]", "value": 0.5, "unit": "nM"}, {"measurement": "reduction of chemokine receptor-expressing cells by the column", "setting": "[4]", "value": 20, "unit": "%"}, {"measurement": "reduction of chemokine receptor-expressing cells by the column", "setting": "[5]", "value": 20, "unit": "%"}, {"measurement": "reduction of chemokine receptor-expressing cells by the column", "setting": "[6]", "value": 20, "unit": "%"}]}]}
